The target in this test is T1, Syndecan-1.
T1 sequence (P18827 whole entry, species assumed, looked up): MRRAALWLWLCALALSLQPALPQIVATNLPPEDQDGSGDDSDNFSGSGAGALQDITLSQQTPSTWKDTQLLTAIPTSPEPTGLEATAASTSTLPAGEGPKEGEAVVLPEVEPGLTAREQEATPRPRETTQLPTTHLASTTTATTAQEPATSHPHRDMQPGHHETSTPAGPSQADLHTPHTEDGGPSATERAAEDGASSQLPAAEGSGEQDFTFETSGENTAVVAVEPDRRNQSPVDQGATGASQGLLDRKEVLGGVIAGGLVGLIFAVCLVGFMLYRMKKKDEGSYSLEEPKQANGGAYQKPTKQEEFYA

For one molecule, minimal therapeutic concentration (β-hexosaminidase secretion, rabbit LGACs) results are on record in patent publication US9102763B2.

B1: lacritin (free lacritin released from Lac-ELP by thrombin cleavage) (ligand)
chain: MEDASSDSTGADPAQEAGTSKPNEEISGPAEPASPPETTTTAQETSAAAVQGTAKVTSSRQELNPLKSIVEKSILLTEQALAKAGKGMHGGVPGGKQFIENGSEFAQKLLKKFSLLKPWAGLVPR
Molecule B1 yielded a minimal therapeutic concentration (β-hexosaminidase secretion, rabbit LGACs) of 10 µM.
